Experimental data reported in patent US20040235744A1.
Where two headings read alike, the source gives them in different places.

Experiments:
[1] = molecular target: nNOS-II (novel constitutive neuronal nitric oxide synthase purified from rat cerebellum) (rat); experiment: enzyme inhibition kinetics on purified nNOS-II, competitive against BK as substrate, oxyhemoglobin assay, EZ-FIT
[2] = molecular target: nNOS-II (novel constitutive neuronal nitric oxide synthase purified from rat cerebellum) (rat); experiment: as above; remark: listed apart in the source
[3] = tested on: T1, BK fragment 2-7
T1 sequence: PPGFSP

[4] = tested on: T2, [Lys^1]-BK
T2 sequence: KPPGFSPFR

[5] = tested on: T3, Des-Arg^1-BK
T3 sequence: PPGFSPFA

[6] = tested on: Poly-arginine (Mr 5,000)
[7] = tested on: T4, Lys-BK
T4 sequence: KRPPGFSPFR

[8] = tested on: T5, Ile-Ser-BK
T5 sequence: ISRPPGFSPFR

[9] = tested on: T6, Cit^1-BK
T6 sequence: XPPGFSPFR

[10] = tested on: T7, BK fragment 1-7
T7 sequence: RPPGFSP

[11] = tested on: T8, Met-Lys-BK
T8 sequence: MKRPPGFSPFR

[12] = tested on: T9, BK fragment 1-5
T9 sequence: RPPGF

[13] = tested on: bradykinin (Arg-Pro-Pro-Gly-Phe-Ser-Pro-Phe-Arg)

| Ki [1] [µM] | Ki [2] [µM] | Substance | Relative activity (%) as substrate, L-arginine = 100% [3] [%] | Relative activity (%) as substrate, L-arginine = 100% [4] [%] | Relative activity (%) as substrate, L-arginine = 100% [5] [%] | Relative activity (%) as substrate, L-arginine = 100% [6] [%] | Relative activity (%) as substrate, L-arginine = 100% [7] [%] | Relative activity (%) as substrate, L-arginine = 100% [8] [%] | apparent KM (NOS activity, oxyhemoglobin assay) [9] | apparent Vmax (NOS activity, oxyhemoglobin assay) [9] | Relative activity (%) as substrate, L-arginine = 100% [10] [%] | Relative activity (%) as substrate, L-arginine = 100% [11] [%] | Relative activity (%) as substrate, L-arginine = 100% [12] [%] | Relative activity (%) as substrate, L-arginine = 100% [13] [%] | apparent KM (NOS activity, oxyhemoglobin assay) [13] | apparent Vmax (NOS activity, oxyhemoglobin assay) [13] |
| --- | --- | --- | --- | --- | --- | --- | --- | --- | --- | --- | --- | --- | --- | --- | --- | --- |
| 2500 | 2.5 | [N-adamantaneacetyl-D-Arg^0, Hyp^3, Thi^5,8, D-Phe^7]-BK (peptide) | – | – | – | – | – | – | – | – | – | – | – | – | – | – |
| – | – | nNOS-II (novel constitutive neuronal nitric oxide synthase purified from rat cerebellum) | 0 | 113 | 94 | 30 | 116 | 110 | Apparent KM values for BK and Cit^1-BK were 8.5 and 6.2 µM, respectively | apparent Vmax values for BK and Cit^1-BK were 1.2 and 1.6 µmol/min/mg protein, respectively | 80 | 0 | 61 | 125 | Apparent KM values for BK and Cit^1-BK were 8.5 and 6.2 µM, respectively | apparent Vmax values for BK and Cit^1-BK were 1.2 and 1.6 µmol/min/mg protein, respectively |
